Results published in the supplement of paper PMC10065799, “High-throughput profiling of sequence recognition by tyrosine kinases and SH2 domains using bacterial peptide display” (eLife, 2023).

Each sequence was assayed on c-Abl (mouse) (assay: phosphorylation enrichment, bacterial display (enrichment ratio); higher = better substrate or ligand; peptides without Tyr show the background).
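Further: 11-residue human phosphosite peptides and single-mutation variants displayed on the E. coli surface, counted by deep sequencing, each peptide's frequency after selection divided by its frequency in the unselected input library; frequency after pTyr selection over input frequency; kinase dosed for 20-30% of maximal phosphorylation in three min.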

Sequence	phosphorylation enrichment
MNPPPYSQFLS [FGF23_Y154]	0.536
LQFRNYQQLFD [MAN2A1_Y442_K440R]	1.3
SWKRRYFLLWA [APBB1IP_Y331_R335W]	0.478
ADRSCYDLSCR [GARS1_Y467_H472R]	0.847
KNDSKYVVKGN [KIT_Y823_N822K]	0.531
FSEVRYMKEPF [HIPK4_Y170_V171M_YF]	0.66
VNFDDYTVNLG [GFPT1_Y367]	0.69
DDSSAYCSVDE [BCKDHA_Y345_R346C]	0.712
WASGIYFVPKG [APBB1IP_Y340_R335W_YF]	28.7
VVLVSYVPSSQ [SH2B1_Y624]	0.614
ISSLDYISKSK [VAV3_Y294_T298S]	0.81
PIPAAYNRFDQ [CDC73_Y290_YF]	0.357
RCYVYYYSYLL [PTEN_Y177_R173C]	1.71
YSMGCYEFSLG [HMGCL_Y198_I200F]	0.864
VDLIVYLRTNP [TK2_Y181]	0.875
LEAVSYSSPYA [RNLS_Y190_R193P]	2.02
ATGGFYSFGGG [KRT24_Y120_YF]	0.562

Sequence	phosphorylation enrichment
PKGTGCIKTEL [STAT1_Y701_Y701C]	1.04
GKVADYIPQLP [GLS_Y249_A254P]	0.795
NTPNAYLRVNV [ADD2_Y440_T439A]	0.706
EQKKFYNAMKN [SCN5A_Y1495_K1500N_YF]	0.446
YQNGMYGLHQD [SGSH_Y89_H84Y]	0.748
YPPTHYIRRVP [SLC4A11_Y820]	0.601
SVTCTSSPALN [TP53_Y126_Y126S]	0.856
LNCAGYCDALE [MTUS1_Y151]	0.917
AIGYEYSEINI [SIGLEC12_Y588]	0.9
VVEYGYEFFAK [PPP1CB_Y254_D252Y]	1.09
TSNQEYLDVSM [FGFR1_Y766_L769V]	0.684
CFSSEYHFVGG [CTSC_Y345_Y340C_YF]	1.19
YAKSVYWDNTL [NUP107_Y296_E298D]	0.557
VHNLDYYKQTT [FGFR3_Y647_K650Q]	0.555
GISDEYHVIQH [GCDH_Y398_R402Q]	0.641
HRDDGYMPMSP [IRS1_Y612_T608R]	0.756

These sequences were tested on Fer (mouse) in the same assay as above.

Sequence	phosphorylation enrichment
MNPPPYSQFLS [FGF23_Y154]	0.711
LQFRNYQQLFD [MAN2A1_Y442_K440R]	0.65
SWKRRYFLLWA [APBB1IP_Y331_R335W]	0.433
ADRSCYDLSCR [GARS1_Y467_H472R]	0.474
KNDSKYVVKGN [KIT_Y823_N822K]	0.258
FSEVRYMKEPF [HIPK4_Y170_V171M_YF]	0.36
VNFDDYTVNLG [GFPT1_Y367]	0.493
DDSSAYCSVDE [BCKDHA_Y345_R346C]	0.521
WASGIYFVPKG [APBB1IP_Y340_R335W_YF]	2.87
VVLVSYVPSSQ [SH2B1_Y624]	0.388
ISSLDYISKSK [VAV3_Y294_T298S]	0.443
PIPAAYNRFDQ [CDC73_Y290_YF]	0.485
RCYVYYYSYLL [PTEN_Y177_R173C]	0.86
YSMGCYEFSLG [HMGCL_Y198_I200F]	4.95
VDLIVYLRTNP [TK2_Y181]	0.432
LEAVSYSSPYA [RNLS_Y190_R193P]	0.714
ATGGFYSFGGG [KRT24_Y120_YF]	2.46

Sequence	phosphorylation enrichment
PKGTGCIKTEL [STAT1_Y701_Y701C]	0.726
GKVADYIPQLP [GLS_Y249_A254P]	0.495
NTPNAYLRVNV [ADD2_Y440_T439A]	0.405
EQKKFYNAMKN [SCN5A_Y1495_K1500N_YF]	0.451
YQNGMYGLHQD [SGSH_Y89_H84Y]	0.55
YPPTHYIRRVP [SLC4A11_Y820]	0.346
SVTCTSSPALN [TP53_Y126_Y126S]	0.538
LNCAGYCDALE [MTUS1_Y151]	0.599
AIGYEYSEINI [SIGLEC12_Y588]	6.47
VVEYGYEFFAK [PPP1CB_Y254_D252Y]	0.835
TSNQEYLDVSM [FGFR1_Y766_L769V]	0.561
CFSSEYHFVGG [CTSC_Y345_Y340C_YF]	0.753
YAKSVYWDNTL [NUP107_Y296_E298D]	0.871
VHNLDYYKQTT [FGFR3_Y647_K650Q]	0.525
GISDEYHVIQH [GCDH_Y398_R402Q]	0.447
HRDDGYMPMSP [IRS1_Y612_T608R]	0.683
